Here are results for four molecules from patent US20210188951A1 (Merck Sharp & Dohme, published 2021).

Broadly, the EC50 is the midpoint of the concentration-response curve. High values mean a need for much substance, low ones an effect from little substance. As usually defined, the Kd is the concentration at which binding is half-saturated. A high value points to lower affinity. As usually defined, the koff is the first-order rate constant of dissociation. Read a low koff as slow dissociation. The term kon denotes the second-order rate constant of association.

The target in test [1] is T1, human RSV A F protein (ELISA of Example 6; pre- or post-fusion form not stated) (human RSV A, UniProt P03420 26-513). The test is described as follows: ELISA on coated F protein; lower end of the range. On the technique in general: In an ELISA, binding on a coated surface is turned into a signal by an enzyme label.
Test [2] deals with T1, human RSV A F protein (ELISA of Example …). The test is described as follows: ELISA, RSV A F protein on the plate, antibody titrated, OD450.
Test [3] has as its target T2, human RSV post-fusion F protein LZF21 (human respiratory syncytial virus (hRSV), UniProt P03420 26-524).
T2 construct: extracellular domain; Trimeric; also called LZF21-biotin
The test is described as follows: SPR (Biacore). (Surface plasmon resonance follows binding to a sensor surface in real time, without labels.)

Test [4] concerns the target T3, human RSV pre-fusion F protein (human respiratory syncytial virus (hRSV), UniProt P03420 26-513).
T3 construct: also called hRSV pre-F
The test is described as follows: SPR (Biacore).

Test [5] addresses T3, human RSV pre-fusion F protein. Briefly: ELISA on coated pre-F.
The target of test [6] is T2, human RSV post-fusion F protein LZF21. The test is described as follows: SPR, Biacore T200, 1:1 Langmuir fit.
Excerpt: (§1) Background subtraction binding sensorgrams were used for analyzing the rate constant of association (kₐ) and dissociation (kd), and the equilibrium dissociation constant KD. The resulting data sets were fitted with a 1:1 Langmuir Binding Model using the Biacore T200 evaluation software (version 2.0).
Test [7] concerns the target T3, human RSV pre-fusion F protein. Briefly: SPR, Biacore T200, 1:1 Langmuir fit.
Excerpt: as §1
Test [8] deals with T4, RSV-F protein I432A mutant, expressed in human cells (UniProt P03420 26-574).
T4 construct: whole, on cells
Briefly: shotgun mutagenesis alanine scan, antibody binding to F mutant expressed in human cells.

Test [9] has as its target T5, RSV-F protein R429A mutant, expressed in human cells (UniProt P03420 26-574).
T5 construct: whole, on cells
The description is as above.

Test [10] addresses T2, human RSV post-fusion F protein LZF21. The test is described as follows: ELISA on coated post-F.
Test [11] concerns the target human RSV pre-fusion F protein (human respiratory syncytial virus (hRSV), UniProt P03420 26-513). The test is described as follows: ELISA on coated pre-F.
Test [12] addresses human RSV post-fusion F protein LZF21 (human respiratory syncytial virus (hRSV), UniProt P03420 26-524). Briefly: ELISA on coated post-F.

B1: RB1+YTE (human IgG1 with M252Y/S254T/T256E in the Fc) (antibody, V domains shown)
VH: EVQLVESGGGLVRPGRSLRLSCTVSGFSFDDSAMSWVRQAPGKGLEWISFIKSKTYGGTKEYAASVKGRFTISRDDSKNIAYLQMNSLKTEDTAVYYCTRGAPYGGNSDYYYGLDVWGQGTTVTVSS
VL: DIQMTQSPSSLSASVGDRVTITCRTSQDVRGALAWYQQKPGKAPKLLIFDASSLETGVPSRFSGSGSGTVFTLTISSLQPEDFAAYYCQQFLDFPFTFGQGTRLEIKR
On to B1, for which the EC50 in test [1] lay in the range of 1.97 to 2.46 ng/mL. Further, the concentration for a half-maximal effect (EC50) in test [2] amounted to 2.24 ng/mL. In test [3], the affinity, expressed as Kd, was 480 pM; the koff turned out to be 0.0007 s⁻¹; the kon was 1.4e+06 M⁻¹ s⁻¹. Besides, in [4], the Kd worked out at 71 pM, the koff worked out at 0.00023 s⁻¹ and the kon worked out at 3.2e+06 M⁻¹ s⁻¹.

B2: RB1 (recombinant human IgG1, CHO-3E7 expressed) (antibody, V domains shown)
VH: B1 VH
VL: B1 VL
notes: Variable domains converted to human IgG1 and expressed in CHO-3E7 cells; also called RB1 MAb; anti-human RSV F protein antibody RB1
Turning to B2, the values for the EC50 in test [5] and in [10] were 7.05 ng/mL and 14.1 ng/mL, respectively. Further, the Kd came out at 410 pM in [6], 31 pM in [7], 410 pM in [3] and 31 pM in [4]. Further, the koff in test [6] came out at 0.0009 s⁻¹; in test [7], 0.00014 s⁻¹; in test [3], 0.0009 s⁻¹; in [4], 0.00014 s⁻¹. For the same molecule, the kon came out at 2.2e+06 M⁻¹ s⁻¹ in [6], 4.4e+06 M⁻¹ s⁻¹ in test [7], 2.2e+06 M⁻¹ s⁻¹ in test [3] and 4.4e+06 M⁻¹ s⁻¹ in test [4]. Besides, the “Binding Reactivity (% WT)” value in test [8] stood at 36.7 % WT; in test [9] it was 33.1 % WT.

B3: D25 antibody (antibody, V domains shown)
VH: QVQLVQSGAEVKKPGSSVMVSCQASGGPLRNYIINWLRQAPGQGPEWMGGIIPVLGTVHYAPKFQGRVTITADESTDTAYIHLISLRSEDTAMYYCATETALVVSTTYLPHYFDNWGQGTLVTVSS
VL: DIQMTQSPSSLSAAVGDRVTITCQASQDIVNYLNWYQQKPGKAPKLLIYVASNLETGVPSRFSGSGSGTDFSLTISSLQPEDVATYYCQQYDNLPLTFGGGTKVEIKR
B3: a half-maximal response in [11] (EC50) required 8.94 ng/mL.

B4: palivizumab (SYNAGIS) (antibody, V domains shown)
VH: QVTLRESGPALVKPTQTLTLTCTFSGFSLSTSGMSVGWIRQPPGKALEWLADIWWDDKKDYNPSLKSRLTISKDTSKNQVVLKVTNMDPADTATYYCARSMITNWYFDVWGAGTTVTVSS
VL: DIQMTQSPSTLSASVGDRVTITCKCQLSVGYMHWYQQKPGKAPKLLIYDTSKLASGVPSRFSGSGSGTEFTLTISSLQPDDFATYYCFQGSGYPFTFGGGTKLEIK
In the case of B4, the figures for the half-maximal effective concentration (EC50) in [11] and in [12] were 17.4 ng/mL and 10.5 ng/mL, respectively.
